Positions count from the first letter of the chain named. Names and notes keep the numbering of the source.
T1: PUF4 RNA-binding domain (Saccharomyces cerevisiae, UniProt P25339 537-888)
T1 sequence: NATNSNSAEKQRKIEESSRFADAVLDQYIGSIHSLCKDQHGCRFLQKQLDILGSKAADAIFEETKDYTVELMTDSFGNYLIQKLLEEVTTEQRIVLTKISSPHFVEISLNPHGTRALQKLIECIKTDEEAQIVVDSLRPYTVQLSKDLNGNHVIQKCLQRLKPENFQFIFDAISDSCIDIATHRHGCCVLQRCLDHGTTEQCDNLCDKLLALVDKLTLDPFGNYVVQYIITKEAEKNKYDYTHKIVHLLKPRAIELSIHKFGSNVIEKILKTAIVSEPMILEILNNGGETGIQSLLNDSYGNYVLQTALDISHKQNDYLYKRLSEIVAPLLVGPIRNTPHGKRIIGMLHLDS

B1: Ib_S2_P4E.1_K4.1_C4.1_H4.1_[G2A]_A4.1_F4.1_[A9G]_T4.1 (ssRNA)
RNA: UUUGAUUAAUAUGAUAUCGUUCUUUCUUAUAUAUUGUUCUUUCUCGAUAUCAUAUUAAUCUUU
B2: Ib_S2_P4E.1_K4.1_C4.1_H4.1_[A4T]_A4.1_F4.1_[A9G]_T4.1 (ssRNA)
RNA: B1 RNA with A29G, A31U
B3: Ib_S2_P4E.1_K4.1_C4.1_H4.1_[A4G]_A4.1_F4.1_[A9T]_T4.1 (ssRNA)
RNA: B1 RNA with A29G, A31G, G36U
B4: Ib_S2_P4E.1_K4.1_C4.1_H4.1_[T3C]_A4.1_F4.1_[A9C]_T4.1 (ssRNA)
RNA: B1 RNA with A29G, U30C, G36C
B5: Ib_S2_P4E.1_K4.1_C4.1_H4.1_[G2T]_A4.1_F4.1_[A9T]_T4.1 (ssRNA)
RNA: B1 RNA with A29U, G36U
B6: Ic_S2_P4E.1_K4.1_C4.1_H4.1_A4.1_[T7C]_F4.1_[T8A]_T4.1 (ssRNA)
RNA: B1 RNA with A29G, U34C, U35A, G36A
B7: Ib_S2_P4E.1_K4.1_C4.1_H4.1_[T3C]_A4.1_F4.1_[A9T]_T4.1 (ssRNA)
RNA: B1 RNA with A29G, U30C, G36U
B8: Ib_S2_P4E.1_K4.1_C4.1_H4.1_[A4G]_A4.1_F4.1_[A9C]_T4.1 (ssRNA)
RNA: B1 RNA with A29G, A31G, G36C
B9: Ib_S2_P4E.1_K4.1_C4.1_H4.1_A4.1_[A6C]_F4.1_[T8A]_T4.1 (ssRNA)
RNA: B1 RNA with A29G, A33C, U35A, G36A
B10: Ic_S2_P4E.1_K4.1_C4.1_H4.1_A4.1_[T7A]_F4.1_[T8A]_T4.1 (ssRNA)
RNA: B1 RNA with A29G, U34A, U35A, G36A
B11: Ic_S2_P4E.1_K4.1_C4.1_H4.1_A4.1_[T7G]_F4.1_[T8C]_T4.1 (ssRNA)
RNA: B1 RNA with A29G, U34G, U35C, G36A
B12: Ib_S2_P4E.1_K4.1_C4.1_H4.1_[G2A]_A4.1_F4.1_[A9C]_T4.1 (ssRNA)
RNA: B1 RNA with G36C
B13: Ib_S2_P4E.1_K4.1_C4.1_H4.1_A4.1_[T5C]_F4.1_[T8A]_T4.1 (ssRNA)
RNA: B1 RNA with A29G, U32C, U35A, G36A
B14: Ia_S2_P4E.1_K4.1_C4.1_H4.1_A4.1_F4.1_[A9C]_T4.1 (ssRNA)
RNA: B1 RNA with A29G, G36C
B15: Ib_S2_P4E.1_K4.1_C4.1_H4.1_A4.1_[T5A]_F4.1_[T8A]_T4.1 (ssRNA)
RNA: B1 RNA with A29G, U32A, U35A, G36A
B16: Ic_S2_P4E.1_K4.1_C4.1_H4.1_A4.1_[A6T]_F4.1_[T8C]_T4.1 (ssRNA)
RNA: B1 RNA with A29G, A33U, U35C, G36A
B17: Ib_S2_P4E.1_K4.1_C4.1_H4.1_A4.1_[T5A]_F4.1_[T8C]_T4.1 (ssRNA)
RNA: B1 RNA with A29G, U32A, U35C, G36A
B18: Ib_S2_P4E.1_K4.1_C4.1_H4.1_A4.1_[A6T]_F4.1_[T8A]_T4.1 (ssRNA)
RNA: B1 RNA with A29G, A33U, U35A, G36A
B19: Ib_S2_P4E.1_K4.1_C4.1_H4.1_A4.1_[T7A]_F4.1_[T8C]_T4.1 (ssRNA)
RNA: B1 RNA with A29G, U34A, U35C, G36A
B20: Ib_S2_P4E.1_K4.1_C4.1_H4.1_[A4G]_A4.1_F4.1_[A9G]_T4.1 (ssRNA)
RNA: B1 RNA with A29G, A31G
B21: Ib_S2_P4E.1_K4.1_C4.1_H4.1_[G2C]_A4.1_F4.1_[A9T]_T4.1 (ssRNA)
RNA: B1 RNA with A29C, G36U
B22: Ib_S2_P4E.1_K4.1_C4.1_H4.1_A4.1_[A6C]_F4.1_[T8C]_T4.1 (ssRNA)
RNA: B1 RNA with A29G, A33C, U35C, G36A
B23: Ic_S2_P4E.1_K4.1_C4.1_H4.1_A4.1_F4.1_[T8A]_T4.1 (ssRNA)
RNA: B1 RNA with A29G, U35A, G36A
B24: Ic_S2_P4E.1_K4.1_C4.1_H4.1_A4.1_[T7C]_F4.1_[T8C]_T4.1 (ssRNA)
RNA: B1 RNA with A29G, U34C, U35C, G36A
B25: Ib_S2_P4E.1_K4.1_C4.1_H4.1_[A4C]_A4.1_F4.1_[A9C]_T4.1 (ssRNA)
RNA: B1 RNA with A29G, A31C, G36C

Molecular target: T1, PUF4 RNA-binding domain
Assay: Mg; RNA-MaP; 20 mM Na-HEPES pH 7.4, 30 mM KOAc, 0.75 mM MgCl2, 0.1% Tween-20, 5% glycerol, 0.1 mg/mL BSA, 2 mM DTT; 25 C; 0.0125-409.6 nM protein
Conditions: tags: N-His6-TEV cleaved; C-SNAP kept, Cy3B-labelled; label: tethered on chip by stalled RNA polymerase

Binder	Kd [nM]
B1	203
B2	63.2
B3	5.78
B4	1070
B5	1670
B6	18
B7	957
B8	11.9
B9	10.7
B10	16.9
B11	42
B12	200
B13	2.52
B14	2.83
B15	13.5
B16	104
B17	58.5
B18	17.8
B19	18.8
B20	28.9
B21	983
B22	30.6
B23	2.04
B24	12
B25	624
